{
  "source": "the emibetuzumab library of Makowski et al. (2022)",
  "parents": {"B1": {"name": "VH:VL chains; a variant is named by its letters at X, in order (parent)", "chain 1": "QVQLVQSGAEVKKPGASVKVSCKASGYTFTDYXMHWVRQAPGQGLEWMGXVNPNXXXTTYNQKFEGRVTMTTDTSTSTAYMELRSLRSDDTAVYYCARXNXLDXWGQGTTVTVSS", "chain 2": "DIQMTQSPSSLSASVGDRVTITCSVSSSVSSIYLHWYQQKPGKAPKLLIYSTSNLASGVPSRFSGSGSGTDFTLTISSLQPEDFATYYCQVYSGYPLTFGGGTKVEIK"}},
  "data": [
    {"variants_of": "B1", "assay": "yeast display scFab, FACS + sequencing", "outline": "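The non-specific binding call was based on sorted and sequenced yeast displaying a heavy-chain CDR mutant scFab library. Labelling used anti-Myc with biotinylated ovalbumin (260 μg/mL in PBSB, 3 h, room temperature) or soluble membrane proteins (130 μg/mL, 20 min on ice), and FACS collected the top 25% and bottom 10% of binders in two replicates. Positive meant present in ≥3 of 4 pooled positive samples and in no negatives, and negative meant the converse.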", "values": [
      {"variant": "DTGTGSVD", "non-specific binding call": "no binding"},
      {"variant": "VTGTGSVD", "non-specific binding call": "no binding"},
      {"variant": "DTGTGSWD", "non-specific binding call": "no binding"},
      {"variant": "VTGTGYVF", "non-specific binding call": "no binding"},
      {"variant": "STGTGYVF", "non-specific binding call": "no binding"},
      {"variant": "FTGTSAAF", "non-specific binding call": "binds"},
      {"variant": "DTGTSAAF", "non-specific binding call": "binds"},
      {"variant": "YTGTSAGD", "non-specific binding call": "no binding"},
      {"variant": "YTGTSAGV", "non-specific binding call": "no binding"},
      {"variant": "YTGTSASD", "non-specific binding call": "no binding"},
      {"variant": "YTGTSAVA", "non-specific binding call": "no binding"},
      {"variant": "YTGTSAVS", "non-specific binding call": "no binding"},
      {"variant": "YTGTSAVV", "non-specific binding call": "no binding"},
      {"variant": "YTGTSAWA", "non-specific binding call": "no binding"},
      {"variant": "YTGTSDAV", "non-specific binding call": "no binding"},
      {"variant": "YTGTSDGV", "non-specific binding call": "no binding"},
      {"variant": "YTGTSDLA", "non-specific binding call": "no binding"},
      {"variant": "YTGTSDLD", "non-specific binding call": "no binding"},
      {"variant": "YTGTSDLV", "non-specific binding call": "no binding"},
      {"variant": "VTGTSDLY", "non-specific binding call": "no binding"},
      {"variant": "DTGTSDLY", "non-specific binding call": "no binding"},
      {"variant": "STGTSDLY", "non-specific binding call": "no binding"},
      {"variant": "FTGTSDLY", "non-specific binding call": "no binding"},
      {"variant": "VTGTSDVA", "non-specific binding call": "no binding"},
      {"variant": "STGTSDVF", "non-specific binding call": "no binding"},
      {"variant": "YTGTSDVS", "non-specific binding call": "no binding"},
      {"variant": "YTGTSDVY", "non-specific binding call": "no binding"},
      {"variant": "YTGTSDWV", "non-specific binding call": "no binding"},
      {"variant": "YTGTSDWY", "non-specific binding call": "no binding"},
      {"variant": "YTGTSSAD", "non-specific binding call": "no binding"},
      {"variant": "YTGTSSGA", "non-specific binding call": "no binding"},
      {"variant": "VTGTSSLD", "non-specific binding call": "no binding"},
      {"variant": "YTGTSSLD", "non-specific binding call": "no binding"},
      {"variant": "YTGTSSSA", "non-specific binding call": "no binding"},
      {"variant": "YTGTSSSV", "non-specific binding call": "no binding"},
      {"variant": "DTKAAAGD", "non-specific binding call": "no binding"},
      {"variant": "DTKAAAVV", "non-specific binding call": "no binding"},
      {"variant": "DTKAADGV", "non-specific binding call": "no binding"},
      {"variant": "DTKAADVA", "non-specific binding call": "no binding"},
      {"variant": "DTKAADWV", "non-specific binding call": "no binding"},
      {"variant": "DTKAADWY", "non-specific binding call": "no binding"},
      {"variant": "DTKAASGV", "non-specific binding call": "no binding"},
      {"variant": "DTKAASSA", "non-specific binding call": "no binding"},
      {"variant": "DTKAASSS", "non-specific binding call": "no binding"},
      {"variant": "DTKAASWA", "non-specific binding call": "no binding"},
      {"variant": "DTKAASWV", "non-specific binding call": "no binding"},
      {"variant": "YTKAASWV", "non-specific binding call": "no binding"},
      {"variant": "VTKAASWV", "non-specific binding call": "no binding"},
      {"variant": "FTKAASWV", "non-specific binding call": "no binding"},
      {"variant": "ATKAASWV", "non-specific binding call": "no binding"},
      {"variant": "STKAASWV", "non-specific binding call": "no binding"},
      {"variant": "FTKASYVY", "non-specific binding call": "binds"},
      {"variant": "YTKEASGY", "non-specific binding call": "binds"},
      {"variant": "VTKESAAV", "non-specific binding call": "no binding"},
      {"variant": "YTKETAAD", "non-specific binding call": "binds"},
      {"variant": "VTKETFSF", "non-specific binding call": "no binding"},
      {"variant": "ATKGAAVA", "non-specific binding call": "no binding"},
      {"variant": "DTKGDSVS", "non-specific binding call": "no binding"},
      {"variant": "VTKGGSSA", "non-specific binding call": "no binding"},
      {"variant": "FTKGSAGY", "non-specific binding call": "binds"},
      {"variant": "YTKGTSVA chain 1 E65K", "non-specific binding call": "binds"},
      {"variant": "YTKKTFSY", "non-specific binding call": "binds"},
      {"variant": "YTKRGDWD", "non-specific binding call": "binds"},
      {"variant": "YTKRGSAA", "non-specific binding call": "binds"},
      {"variant": "YTKRSAVV", "non-specific binding call": "binds"},
      {"variant": "STKRSFWA", "non-specific binding call": "binds"},
      {"variant": "YTKRSSGA", "non-specific binding call": "binds"},
      {"variant": "DTKRTAGD", "non-specific binding call": "no binding"},
      {"variant": "DTKRTAVA", "non-specific binding call": "binds"},
      {"variant": "ATKTAFVS chain 1 M34I", "non-specific binding call": "no binding"},
      {"variant": "VTKTGAAA", "non-specific binding call": "no binding"},
      {"variant": "VTKTGDAV", "non-specific binding call": "no binding"},
      {"variant": "YTKTGDAV", "non-specific binding call": "no binding"},
      {"variant": "VTKTGDVA", "non-specific binding call": "no binding"},
      {"variant": "YTKTSSVD", "non-specific binding call": "binds"},
      {"variant": "YTRAGAAA", "non-specific binding call": "binds"},
      {"variant": "FTRAGAAA", "non-specific binding call": "binds"},
      {"variant": "YTRAGSAA", "non-specific binding call": "binds"},
      {"variant": "FTREASAV", "non-specific binding call": "binds"},
      {"variant": "VTREGAVA", "non-specific binding call": "no binding"},
      {"variant": "YTREGAVA", "non-specific binding call": "no binding"},
      {"variant": "DTREGAVV", "non-specific binding call": "no binding"},
      {"variant": "DTREGDAV", "non-specific binding call": "no binding"},
      {"variant": "DTREGDGA", "non-specific binding call": "no binding"},
      {"variant": "DTREGDVA", "non-specific binding call": "no binding"},
      {"variant": "DTREGDVD", "non-specific binding call": "no binding"},
      {"variant": "DTREGDVY", "non-specific binding call": "no binding"},
      {"variant": "FTRESFAA", "non-specific binding call": "binds"},
      {"variant": "YTRGAAGV", "non-specific binding call": "no binding"},
      {"variant": "YTRGAAGY", "non-specific binding call": "no binding"},
      {"variant": "YTRGAALA", "non-specific binding call": "no binding"},
      {"variant": "YTRGAASD", "non-specific binding call": "no binding"},
      {"variant": "YTRGAAVA", "non-specific binding call": "no binding"},
      {"variant": "VTRGADAA", "non-specific binding call": "no binding"},
      {"variant": "VTRGADAV", "non-specific binding call": "no binding"},
      {"variant": "DTRGADAV", "non-specific binding call": "no binding"},
      {"variant": "FTRGADAV", "non-specific binding call": "no binding"},
      {"variant": "STRGADAV", "non-specific binding call": "no binding"},
      {"variant": "ATRGADAV", "non-specific binding call": "no binding"},
      {"variant": "YTRGADGA", "non-specific binding call": "no binding"},
      {"variant": "YTRGADGS", "non-specific binding call": "no binding"},
      {"variant": "VTRGADGV", "non-specific binding call": "no binding"},
      {"variant": "YTRGADGV", "non-specific binding call": "no binding"},
      {"variant": "YTRGADLA", "non-specific binding call": "no binding"},
      {"variant": "YTRGADVA", "non-specific binding call": "no binding"}
    ]}
  ]
}
